Laboratory results reported in paper PMC5476288 (PLoS Pathogens, 2017).

Target: T1, Flag-IRF3 (human, UniProt Q14653 1-427)
T1 construct: not shown: Flag, N-terminal, kept
T1 sequence (looked up): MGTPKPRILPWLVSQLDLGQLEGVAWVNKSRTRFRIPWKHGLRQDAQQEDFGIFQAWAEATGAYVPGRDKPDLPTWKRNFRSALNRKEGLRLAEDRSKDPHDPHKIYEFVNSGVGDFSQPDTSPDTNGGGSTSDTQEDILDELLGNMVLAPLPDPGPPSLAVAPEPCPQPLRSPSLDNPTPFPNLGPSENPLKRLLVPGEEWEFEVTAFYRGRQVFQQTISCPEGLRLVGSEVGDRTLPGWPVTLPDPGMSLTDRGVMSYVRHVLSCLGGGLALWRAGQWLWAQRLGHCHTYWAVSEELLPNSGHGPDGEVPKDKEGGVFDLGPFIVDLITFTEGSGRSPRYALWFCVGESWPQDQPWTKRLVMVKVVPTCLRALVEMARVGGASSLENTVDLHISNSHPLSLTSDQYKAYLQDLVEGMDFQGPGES
Experiment: pull-down; lysates of 293T cells with ectopic Flag-TBK1 or Flag-IRF3 incubated with GST or the GST-ERRα fusion protein
Conditions: one partner purified

binding result: binds
B1: GST-ERRα fusion protein (natural protein, UniProt P11474 1-423, looked up)
chain: MSSQVVGIEPLYIKAEPASPDSPKGSSETETEPPVALAPGPAPTRCLPGHKEEEDGEGAGPGEQGGGKLVLSSLPKRLCLVCGDVASGYHYGVASCEACKAFFKRTIQGSIEYSCPASNECEITKRRRKACQACRFTKCLRVGMLKEGVRLDRVRGGRQKYKRRPEVDPLPFPGPFPAGPLAVAGGPRKTAAPVNALVSHLLVVEPEKLYAMPDPAGPDGHLPAVATLCDLFDREIVVTISWAKSIPGFSSLSLSDQMSVLQSVWMEVLVLGVAQRSLPLQDELAFAEDLVLDEEGARAAGLGELGAALLQLVRRLQALRLEREEYVLLKALALANSDSVHIEDAEAVEQLREALHEALLEYEAGRAGPGGGAERRRAGRLLLTLPLLRQTAGKVLAHFYGVKLEGKVPMHKLFLEMLEAMMD
notes: also called estrogen-related receptor α
